The results in this text go back to US20150057236.

B1: human Sirt2 (protein)
chain: MAEPDPSHPLETQAGKVQEAQDSDSDSEGGAAGGEADMDFLRNLFSQTLSLGSQKERLLDELTLEGVARYMQSERCRRVICLVGAGISTSAGIPDFRSPSTGLYDNLEKYHLPYPEAIFEISYFKKHPEPFFALAKELYPGQFKPTICHYFMRLLKDKGLLLRCYTQNIDTLERIAGLEQEDLVEAHGTFYTSHCVSASCRHEYPLSWMKEKIFSEVTPKCEDCQSLVKPDIVFFGESLPARFFSCMQSDFLKVDLLLVMGTSLQVQPFASLISKAPLSTPRLLINKEKAGQSDPFLGMIMGLGGGMDFDSKKAYRDVAWLGECDQGCLALAELLGWKKELEDLVRREHASIDAQSGAGVPNPSTSASPKKSPPPAKDEARTTEREKPQ
In the case of B1, in the data set with H3K9 acetyl peptide, the Km for acetyl peptide amounted to 190 µM; the kcat (usually the number of substrate molecules converted per active site and unit of time at saturation) was 0.03 s⁻¹; the kcat/Km (s^-1M^-1) is 160 s^-1M^-1.

B2: human Sirt3 (protein)
chain: ISFSVGASSVVGSGGSSDKGKLSLQDVAELIRARACQRVVVMVGAGISTPSGIPDFRSPGSGLYSNLQQYDLPYPEAIFELPFFFHNPKPFFTLAKELYPGNYKPNVTHYFLRLLHDKGLLLRLYTQNIDGLERVSGIPASKLVEAHGTFASATCTVCQRPFPGEDIRADVMADRVPRCPVCTGVVKPDIVFFGEPLPQRFLLHVVDFPMADLLLILGTSLEVEPFASLTEAVRSSVPRLLINRDLVGPLAWHPRSRDVAQLGDVVHGVESLVELLGWTEEMRDLVQRETGKLDGPDK
For the protein B2, in the data set with H3K9 acetyl peptide, the Km for acetyl peptide was found to be 50 µM, the kcat was found to be 0.012 s⁻¹ and the kcat/Km (s^-1M^-1) came to 240 s^-1M^-1.

B3: human Sirt1 (protein)
chain: MADEAALALQPGGSPSAAGADREAASSPAGEPLRKRPRRDGPGLERSPGEPGGAAPEREVPAAARGCPGAAAAALWREAEAEAAAAGGEQEAQATAAAGEGDNGPGLQGPSREPPLADNLYDEDDDDEGEEEEEAAAAAIGYRDNLLFGDEIITNGFHSCESDEEDRASHASSSDWTPRPRIGPYTFVQQHLMIGTDPRTILKDLLPETIPPPELDDMTLWQIVINILSEPPKRKKRKDINTIEDAVKLLQECKKIIVLTGAGVSVSCGIPDFRSRDGIYARLAVDFPDLPDPQAMFDIEYFRKDPRPFFKFAKEIYPGQFQPSLCHKFIALSDKEGKLLRNYTQNIDTLEQVAGIQRIIQCHGSFATASCLICKYKVDCEAVRGDIFNQVVPRCPRCPADEPLAIMKPEIVFFGENLPEQFHRAMKYDKDEVDLLIVIGSSLKVRPVALIPSSIPHEVPQILINREPLPHLHFDVELLGDCDVIINELCHRLGGEYAKLCCNPVKLSEITEKPPRTQKELAYLSELPPTPLHVSEDSSSPERTSPPDSSVIVTLLDQAAKSNDDLDVSESKGCMEEKPQEVQTSRNVESIAEQMENPDLKNVGSSTGEKNERTSVAGTVRKCWPNRVAKEQISRRLDGNQYLFLPPNRYIFHGAEVYSDSEDDVLSSSSCGSNSDSGTCQSPSLEEPMEDESEIEEFYNGLEDEPDVPERAGGAGFGTDGDDQEAINEAISVKQEVTDMNYPSNKS
With B3, in the data set with H3K9 acetyl peptide, the Km for acetyl peptide is 38 µM, the “hydrolysis of acyl peptide (LC-MS)” value is given as “Sirt1 catalyzed the hydrolysis of the acetyl peptide”, the kcat is 0.039 s⁻¹ and the kcat/Km (s^-1M^-1) is 1000 s^-1M^-1. Besides, the “hydrolysis of acyl peptide (LC-MS)” value with H3K9 malonyl peptide is “but not the malonyl and succinyl peptides”. The “hydrolysis of acyl peptide (LC-MS)” value with H3K9 succinyl peptide is “but not the malonyl and succinyl peptides”.

B4: human Sirt7 (protein)
chain: MAAGGLSRSERKAAERVRRLREEQQRERLRQVSRILRKAAAERSAEEGRLLAESADLVTELQGRSRRREGLKRRQEEVCDDPEELRGKVRELASAVRNAKYLVVYTGAGISTAASIPDYRGPNGVWTLLQKGRSVSAADLSEAEPTLTHMSITRLHEQKLVQHVVSQNCDGLHLRSGLPRTAISELHGNMYIEVCTSCVPNREYVRVFDVTERTALHRHQTGRTCHKCGTQLRDTIVHFGERGTLGQPLNWEAATEAASRADTILCLGSSLKVLKKYPRLWCMTKPPSRRPKLYIVNLQWTPKDDWAALKLHGKCDDVMRLLMAELGLEIPAYSRWQDPIFSLATPLRAGEEGSHSRKSLCRSREEAPPGDRGAPLSSAPILGGWFGRGCTKRTKRKKVT
Consider B4, for which the “hydrolysis of acyl peptide (LC-MS)” value is “Sirt6 and Sirt7 have no detectable activity on acetyl, malonyl, or succinyl peptides under the conditions tested” with H3K9 acetyl peptide; “Sirt6 and Sirt7 have no detectable activity on acetyl, malonyl, or succinyl peptides under the conditions tested” with H3K9 malonyl peptide; “Sirt6 and Sirt7 have no detectable activity on acetyl, malonyl, or succinyl peptides under the conditions tested” in the data set with H3K9 succinyl peptide.
